# According to paper PMC10397247:
# T1: O12
# T1 chain: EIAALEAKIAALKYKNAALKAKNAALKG
# T2: O7
# T2 chain: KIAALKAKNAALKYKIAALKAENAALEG
# T3: O2
# T3 chain: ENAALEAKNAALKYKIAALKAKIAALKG
# T4: O13
# T4 chain: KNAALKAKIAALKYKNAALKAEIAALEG
# T5: O6
# T5 chain: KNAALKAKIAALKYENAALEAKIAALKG
# T6: O16
# T6 chain: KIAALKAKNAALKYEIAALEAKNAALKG
# T7: O4
# T7 chain: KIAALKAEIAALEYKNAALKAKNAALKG
# T8: O15
# T8 chain: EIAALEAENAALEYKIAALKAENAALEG
# T9: O9
# T9 chain: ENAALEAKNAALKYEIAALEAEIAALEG
# T10: O8
# T10 chain: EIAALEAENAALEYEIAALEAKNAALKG
# T11: O3
# T11 chain: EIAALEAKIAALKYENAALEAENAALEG
# T12: O14
# T12 chain: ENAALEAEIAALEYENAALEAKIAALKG
# T13: O5
# T13 chain: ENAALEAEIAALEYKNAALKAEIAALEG
# T14: P8mS
# T14 chain: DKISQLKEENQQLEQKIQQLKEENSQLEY
# T15: P6mS
# T15 chain: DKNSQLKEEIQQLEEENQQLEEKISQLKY
# T16: P9mS
# T16 chain: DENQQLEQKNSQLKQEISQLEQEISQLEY
# T17: P7mS
# T17 chain: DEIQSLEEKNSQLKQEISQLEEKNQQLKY
# T18: P3mS
# T18 chain: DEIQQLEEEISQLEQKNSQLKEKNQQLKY
# T19: P5mS
# T19 chain: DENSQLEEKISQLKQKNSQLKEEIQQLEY
# T20: 4H3939-AA
# T20 chain: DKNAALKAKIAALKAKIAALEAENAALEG
# T21: 4H478-AA
# T21 chain: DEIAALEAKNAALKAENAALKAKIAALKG
# T22: 4H3591-AA
# T22 chain: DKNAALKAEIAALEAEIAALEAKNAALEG
# T23: 4H3920-AA
# T23 chain: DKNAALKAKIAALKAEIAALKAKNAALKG
# T24: 4H1146-AA
# T24 chain: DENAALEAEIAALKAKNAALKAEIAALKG
# T25: 4H2713-AA
# T25 chain: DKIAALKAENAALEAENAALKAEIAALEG
# T26: 4H3628-AA
# T26 chain: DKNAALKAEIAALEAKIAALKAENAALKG
# T27: 4H189-AA
# T27 chain: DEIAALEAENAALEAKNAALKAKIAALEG
# T28: 4H2948-AA
# T28 chain: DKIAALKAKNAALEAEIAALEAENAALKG
# T29: 4H428-AA
# T29 chain: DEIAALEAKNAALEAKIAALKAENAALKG
# T30: 4H1391-AA
# T30 chain: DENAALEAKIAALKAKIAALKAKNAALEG
# T31: 4H391-AA
# T31 chain: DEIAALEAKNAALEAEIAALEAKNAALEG
# T32: 4H3709-AA
# T32 chain: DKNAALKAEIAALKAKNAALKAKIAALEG
# T33: 4H1348-AA
# T33 chain: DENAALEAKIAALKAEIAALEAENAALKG
# T34: 4H3446-AA
# T34 chain: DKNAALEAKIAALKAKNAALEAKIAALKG
# T35: 4H3102-AA
# T35 chain: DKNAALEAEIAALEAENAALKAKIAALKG
# T36: 4H3066-AA
# T36 chain: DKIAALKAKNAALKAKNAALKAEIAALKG
# T37: 4H3121-AA
# T37 chain: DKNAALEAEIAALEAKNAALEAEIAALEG
# T38: 4H1109-AA
# T38 chain: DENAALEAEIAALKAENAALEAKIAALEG
# T39: 4H3666-AA
# T39 chain: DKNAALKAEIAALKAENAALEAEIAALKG
# T40: 4H675-AA
# T40 chain: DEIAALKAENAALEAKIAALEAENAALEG
# T41: 4H3417-AA
# T41 chain: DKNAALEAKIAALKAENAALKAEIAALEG
# T42: 4H497-AA
# T42 chain: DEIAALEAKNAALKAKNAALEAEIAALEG
# T43: 4H2283-AA
# T43 chain: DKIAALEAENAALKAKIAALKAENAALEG
# T44: 4H3029-AA
# T44 chain: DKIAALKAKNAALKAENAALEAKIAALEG
# T45: 4H2991-AA
# T45 chain: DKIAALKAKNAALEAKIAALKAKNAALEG
# T46: 4H1854-AA
# T46 chain: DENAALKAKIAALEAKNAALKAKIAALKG
# T47: 4H1809-AA
# T47 chain: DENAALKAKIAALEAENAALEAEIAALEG
# T48: 4H971-AA
# T48 chain: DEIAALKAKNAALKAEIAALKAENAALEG
# T49: 4H2742-AA
# T49 chain: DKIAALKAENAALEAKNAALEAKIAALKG
# T50: 4H656-AA
# T50 chain: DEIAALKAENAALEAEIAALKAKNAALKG
# T51: 4H146-AA
# T51 chain: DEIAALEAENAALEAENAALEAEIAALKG
# T52: 4H2248-AA
# T52 chain: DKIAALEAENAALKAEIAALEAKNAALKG
# Tests used:
# O12 = biological target: T1, O12; experiment: two-hybrid library CC0; conditions: mean of both orientations;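 further: natural log of median RNA to DNA barcode read ratio; higher means stronger binding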
# O7 = biological target: T2, O7; experiment: two-hybrid library CC0; conditions: mean of both orientations;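 further: natural log of median RNA to DNA barcode read ratio; higher means stronger binding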
# O2 = biological target: T3, O2; experiment: two-hybrid library CC0; conditions: mean of both orientations;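 further: natural log of median RNA to DNA barcode read ratio; higher means stronger binding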
# O13 = biological target: T4, O13; experiment: two-hybrid library CC0; conditions: mean of both orientations;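 further: natural log of median RNA to DNA barcode read ratio; higher means stronger binding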
# O6 = biological target: T5, O6; experiment: two-hybrid library CC0; conditions: mean of both orientations
# O16 = biological target: T6, O16; experiment: two-hybrid library CC0; conditions: mean of both orientations
# O4 = biological target: T7, O4; experiment: two-hybrid library CC0; conditions: mean of both orientations
# O15 = biological target: T8, O15; experiment: two-hybrid library CC0; conditions: mean of both orientations
# O9 = biological target: T9, O9; experiment: two-hybrid library CC0; conditions: mean of both orientations
# O8 = biological target: T10, O8; experiment: two-hybrid library CC0; conditions: mean of both orientations
# O3 = biological target: T11, O3; experiment: two-hybrid library CC0; conditions: mean of both orientations
# O14 = biological target: T12, O14; experiment: two-hybrid library CC0; conditions: mean of both orientations
# O5 = biological target: T13, O5; experiment: two-hybrid library CC0; conditions: mean of both orientations
# P8mS = biological target: T14, P8mS; experiment: two-hybrid library CCNG1
# P6mS = biological target: T15, P6mS; experiment: two-hybrid library CCNG1
# P9mS = biological target: T16, P9mS; experiment: two-hybrid library CCNG1
# P7mS = biological target: T17, P7mS; experiment: two-hybrid library CCNG1
# P3mS = biological target: T18, P3mS; experiment: two-hybrid library CCNG1
# P5mS = biological target: T19, P5mS; experiment: two-hybrid library CCNG1
# 4H3939-AA = biological target: T20, 4H3939-AA; experiment: two-hybrid library CCmax; conditions: mean of both orientations
# 4H478-AA = biological target: T21, 4H478-AA; experiment: two-hybrid library CCmax; conditions: mean of both orientations
# 4H3591-AA = biological target: T22, 4H3591-AA; experiment: two-hybrid library CCmax
# 4H3920-AA = biological target: T23, 4H3920-AA; experiment: two-hybrid library CCmax; conditions: mean of both orientations
# 4H1146-AA = biological target: T24, 4H1146-AA; experiment: two-hybrid library CCmax; conditions: mean of both orientations
# 4H2713-AA = biological target: T25, 4H2713-AA; experiment: two-hybrid library CCmax; conditions: mean of both orientations
# 4H3628-AA = biological target: T26, 4H3628-AA; experiment: two-hybrid library CCmax; conditions: mean of both orientations
# 4H189-AA = biological target: T27, 4H189-AA; experiment: two-hybrid library CCmax; conditions: mean of both orientations
# 4H2948-AA = biological target: T28, 4H2948-AA; experiment: two-hybrid library CCmax; conditions: mean of both orientations
# 4H428-AA = biological target: T29, 4H428-AA; experiment: two-hybrid library CCmax; conditions: mean of both orientations
# 4H1391-AA = biological target: T30, 4H1391-AA; experiment: two-hybrid library CCmax; conditions: mean of both orientations
# 4H391-AA = biological target: T31, 4H391-AA; experiment: two-hybrid library CCmax; conditions: mean of both orientations
# 4H3709-AA = biological target: T32, 4H3709-AA; experiment: two-hybrid library CCmax; conditions: mean of both orientations
# 4H1348-AA = biological target: T33, 4H1348-AA; experiment: two-hybrid library CCmax; conditions: mean of both orientations
# 4H3446-AA = biological target: T34, 4H3446-AA; experiment: two-hybrid library CCmax; conditions: mean of both orientations
# 4H3102-AA = biological target: T35, 4H3102-AA; experiment: two-hybrid library CCmax; conditions: mean of both orientations
# 4H3066-AA = biological target: T36, 4H3066-AA; experiment: two-hybrid library CCmax; conditions: mean of both orientations
# 4H3121-AA = biological target: T37, 4H3121-AA; experiment: two-hybrid library CCmax; conditions: mean of both orientations
# 4H1109-AA = biological target: T38, 4H1109-AA; experiment: two-hybrid library CCmax
# 4H3666-AA = biological target: T39, 4H3666-AA; experiment: two-hybrid library CCmax; conditions: mean of both orientations
# 4H675-AA = biological target: T40, 4H675-AA; experiment: two-hybrid library CCmax; conditions: mean of both orientations
# 4H3417-AA = biological target: T41, 4H3417-AA; experiment: two-hybrid library CCmax; conditions: mean of both orientations
# 4H497-AA = biological target: T42, 4H497-AA; experiment: two-hybrid library CCmax; conditions: mean of both orientations
# 4H2283-AA = biological target: T43, 4H2283-AA; experiment: two-hybrid library CCmax; conditions: mean of both orientations
# 4H3029-AA = biological target: T44, 4H3029-AA; experiment: two-hybrid library CCmax; conditions: mean of both orientations
# 4H2991-AA = biological target: T45, 4H2991-AA; experiment: two-hybrid library CCmax; conditions: mean of both orientations
# 4H1854-AA = biological target: T46, 4H1854-AA; experiment: two-hybrid library CCmax; conditions: mean of both orientations
# 4H1809-AA = biological target: T47, 4H1809-AA; experiment: two-hybrid library CCmax; conditions: mean of both orientations
# 4H971-AA = biological target: T48, 4H971-AA; experiment: two-hybrid library CCmax; conditions: mean of both orientations
# 4H2742-AA = biological target: T49, 4H2742-AA; experiment: two-hybrid library CCmax; conditions: mean of both orientations
# 4H656-AA = biological target: T50, 4H656-AA; experiment: two-hybrid library CCmax; conditions: mean of both orientations
# 4H146-AA = biological target: T51, 4H146-AA; experiment: two-hybrid library CCmax; conditions: mean of both orientations
# 4H2248-AA = biological target: T52, 4H2248-AA; experiment: two-hybrid library CCmax; conditions: mean of both orientations
binder,measurement,setting,value
EIAALEAKIAALKYKNAALKAKNAALKG [O12],interaction score,O12,-2.79
same,interaction score,O7,-2.84
same,interaction score,O2,-2.79
same,interaction score,O13,-2.79
same,interaction score,O6,-2.7
same,interaction score,O16,-2.78
same,interaction score,O4,-2.22
same,interaction score,O15,-2.78
same,interaction score,O9,-2.71
same,interaction score,O8,-2.29
same,interaction score,O3,0.0458
same,interaction score,O14,-2.03
same,interaction score,O5,-2.71
DEIQQLEEEISQLEQKNSQLKEKNQQLKY [P3mS],interaction score,P8mS,-1.66
same,interaction score,P6mS,-0.88
same,interaction score,P9mS,-0.496
same,interaction score,P7mS,-1.59
same,interaction score,P3mS,-1.02
same,interaction score,P5mS,-0.969
DENAALEAEIAALKAENAALEAKIAALEG [4H1109-AA],interaction score,4H3939-AA,-1.76
same,interaction score,4H478-AA,-1.55
same,interaction score,4H3591-AA,-1.05
same,interaction score,4H3920-AA,-1.35
same,interaction score,4H1146-AA,1.4
same,interaction score,4H2713-AA,-1.49
same,interaction score,4H3628-AA,-1.06
same,interaction score,4H189-AA,-0.821
same,interaction score,4H2948-AA,-1.16
same,interaction score,4H428-AA,-1.21
same,interaction score,4H1391-AA,-1.71
same,interaction score,4H391-AA,-1.46
same,interaction score,4H3709-AA,2.13
same,interaction score,4H1348-AA,-1.31
same,interaction score,4H3446-AA,-0.106
same,interaction score,4H3102-AA,1.35
same,interaction score,4H3066-AA,-0.41
same,interaction score,4H3121-AA,-0.8
same,interaction score,4H1109-AA,0.484
same,interaction score,4H3666-AA,0.67
same,interaction score,4H675-AA,-0.943
same,interaction score,4H3417-AA,0.592
same,interaction score,4H497-AA,-1.77
same,interaction score,4H2283-AA,-0.782
same,interaction score,4H3029-AA,-0.926
same,interaction score,4H2991-AA,-0.637
same,interaction score,4H1854-AA,1.5
same,interaction score,4H1809-AA,-1.32
same,interaction score,4H971-AA,0.0745
same,interaction score,4H2742-AA,-1.33
same,interaction score,4H656-AA,-1.33
same,interaction score,4H146-AA,-1.63
same,interaction score,4H2248-AA,-0.482
